From US20260242436A1 (HANMI PHARM, published 2026)

T1: interleukin-2 beta receptor (SYMANSIS, #4122H) to which a human immunoglobulin Fc region was linked (UniProt P14784 27-239, limits assumed)
T1 construct: Bought receptor-Fc, captured on anti-human immunoglobulin antibody; also called IL-2Rβ; CD122; not shown: human immunoglobulin Fc region
T1 sequence (looked up): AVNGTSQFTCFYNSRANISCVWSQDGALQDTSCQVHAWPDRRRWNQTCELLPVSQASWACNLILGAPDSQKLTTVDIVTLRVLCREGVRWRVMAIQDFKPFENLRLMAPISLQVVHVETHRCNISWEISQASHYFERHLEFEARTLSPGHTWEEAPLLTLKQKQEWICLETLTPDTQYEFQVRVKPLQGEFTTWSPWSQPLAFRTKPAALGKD

T2: interleukin-2 alpha receptor (SYMANSIS, #4102H) to which a human immunoglobulin Fc region was linked (UniProt P01589 22-213, limits assumed)
T2 construct: Bought receptor-Fc, captured on anti-human immunoglobulin antibody; also called IL-2Rα; CD25; not shown: human immunoglobulin Fc region
T2 sequence (looked up): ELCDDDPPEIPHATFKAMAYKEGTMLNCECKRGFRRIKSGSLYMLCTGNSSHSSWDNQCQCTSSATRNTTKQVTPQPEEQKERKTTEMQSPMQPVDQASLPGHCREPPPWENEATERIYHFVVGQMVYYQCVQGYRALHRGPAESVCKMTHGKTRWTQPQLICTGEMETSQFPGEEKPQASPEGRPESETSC

B1: interleukin-2 analog 71 (ligand)
chain: PTSSSTKKTQLQLEHLLLDLQMILNGINNYKNPKLTAMLTKKFYMPKKATELKHLQCLEEELKPLEEVLNLAQSKNFHFEPRDVVSNINVFVLELKGSETTFMCEYADETATIVEFLNRWITFSQSIISTLT
B2: interleukin-2 analog 18 (ligand)
chain: PTSSSTKKTQLQLEHLLLDLQMILNGINNYKNPKLTAMLTKKFYMPKKATELKHLQCLEQELKPLEEVLNLAQSKNFHLRPRDLISNINVIVLELKGSETTFMCEYADETATIVEFLNRWITFSQSIISTLT
B3: interleukin-2 analog 75 (ligand)
chain: PTSSSTKKTQLQLEHLLLDLQMILNGINNYKNPKLTAMLTKKFAMPKKATELKHLQCLEEELKPLEEVLNLAQSKNFHFEPRDVVSNINVFVLELKGSETTFMCEYADETATIVEFLNRWITFSQSIISTLT
B4: interleukin-2 analog 14 (ligand)
chain: PTSSSTKKTQLQLEHLLYDLQMILNGINNYKNPKLTAMLTKKFYMPKKATELKHLQCLEEELKPLEEVLNLAQSKNFHLRPRDLISNINVIVLELKGSETTFMCEYADETATIVEFLNRWITFSQSIISTLT
B5: interleukin-2 analog 59 (ligand)
chain: PTSSSTKKTQLQLEHLLLDLQMILNGINNYKNPKLTAMLTKKFYMPKKATELKHLQCLEEELKPLEEVLNLAQSKNFHFDPRDAASNINVYVLELKGSETTFMCEYADETATIVEFLNRWITFSQSIISTLT
B6: interleukin-2 analog 34 (ligand)
chain: PTSSSTKKTQLQLEHLLLDLQMILNGINNYKNPKLTAMLTFKFYMPKKATELKHLQCLEEELKPLEEVLNLAQSKNFHFRPRELISNINVIVLELKGSETTFMCEYADETATIVEFLNRWITFSQSIISTLT
B7: interleukin-2 analog 77 (ligand)
chain: PTSSSTKKTQLQLEHLLLDLQMILNGINNYKNPKLTAMLTKEFYMPKKATELKHLQCLERELKPLEEVLNLAQSKNFHFDPRDWVSNINVFVLELKGSETTFMCEYADETATIVEFLNRWITFSQSIISTLT
B8: interleukin-2 analog 55 (ligand)
chain: PTSSSTKKTQLQLEHLLLDLQMILNGINNYKNPKLTAMLTKKFYMPKKATELKHLQCLEEELKPLEEVLNLAHSKNFHFDPRDLISNINVFVLELKGSETTFMCEYADETATIVEFLNRWITFSQSIISTLT
B9: interleukin-2 analog 57 (ligand)
chain: PTSSSTKKTQLQLEHLLLDLQMILNGINNYKNPKLTAMLTKKFAMPKKATELKHLQCLEEELKPLEEVLNLAHSKNFHFDPRDLISNINVFVLELKGSETTFMCEYADETATIVEFLNRWITFSQSIISTLT
B10: interleukin-2 analog 70 (ligand)
chain: PTSSSTKKTQLQLEHLLLDLQMILNGINNYKNPKLTAMLTKKFYMPKKATELKHLQCLEEELKPLEEVLNLAQSKNFHYDPRDVVSNINVFVLELKGSETTFMCEYADETATIVEFLNRWITFSQSIISTLT
B11: interleukin-2 analog 13 (ligand)
chain: PTSSSTKKTQLQLEHLLLDLQMILNGINNYKNPKLTAMLTAKFYMPKKATELKHLQCLEEELKPLEEVLNLAQSKNFHLRPRDLISNINVIVLELKGSETTFMCEYADETATIVEFLNRWITFSQSIISTLT
B12: interleukin-2 analog 84 (ligand)
chain: PTSSSTKKTQLQLEHLRLDLEMILNGINNYKNPKLTRMLTFKFYMPKKATELKHLQCLEEELKPLEEVLNLAQSKNFHVDPRDEVSNINVFVLELKGSETTFMCEYADETATIVEFLNRWITFSQSIISTLT
B13: interleukin-2 analog 16 (ligand)
chain: PTSSSTKKTQLQLEHLLLDLQMILNGINNYKNPKLTAMLTKKFYMPKKATELKHLQCLEEELKPLEEVLNLAQSKNFHLRPRDLISQINVIVLELKGSETTFMCEYADETATIVEFLNRWITFSQSIISTLT
B14: interleukin-2 analog 86 (ligand)
chain: PTSSSTKKTQLQLEHLRLDLEMILNGINNYKNPKLTRMLTFKFYMPKKATELKHLQCLEEELKPLEEVLNLAQSKNFHFEPRDVVSNINVFVLELKGSETTFMCEYADETATIVEFLNRWITFSQSIISTLT
B15: interleukin-2 analog 31 (ligand)
chain: PTSSSTKKTQLQLEHLLLDLQMILNGINNYKNPKLTAMLTFKFYMPKKATELKHLQCLEEELKPLEEVLNLAQSKNFHLRPRELISNINVIVLELKGSETTFMCEYADETATIVEFLNRWITFSQSIISTLT
B16: interleukin-2 analog 74 (ligand)
chain: PTSSSTKKTQLQLEHLLLDLQMILNGINNYKNPKLTDMLTKKFYMPKKATELKHLQCLEEELKPLEEVLNLAQSKNFHYDPRDVVSNINVFVLELKGSETTFMCEYADETATIVEFLNRWITFSQSIISTLT
B17: interleukin-2 analog 76 (ligand)
chain: PTSSSTKKTQLQLEHLLLDLQMILNGINNYKNPKLTAMLTKQFYMPKKATELKHLQCLERELKPLEEVLNLAQSKNFHFDPRDVGSNINVFVLELKGSETTFMCEYADETATIVEFLNRWITFSQSIISTLT
B18: interleukin-2 analog 90 (ligand)
chain: PTSSSTKKTQLQLEHLLLDLQMILNGINNYKNPKLTRMLTWKFYMPKKATELKHLQCLEEELKPLEEVLNLAQSKNFHFEPRDVVSNINVFVLELKGSETTFMCEYADETATIVEFLNRWITFSQSIISTLT
B19: interleukin-2 analog 58 (ligand)
chain: PTSSSTKKTQLQLEHLLLDLQMILNGINNYKNPKLTAMLTKKFYMPKKATELKHLQCLEEELKPLEEVLNLAQSKNFHFDPRDAASNINVFVLELKGSETTFMCEYADETATIVEFLNRWITFSQSIISTLT
B20: interleukin-2 analog 61 (ligand)
chain: PTSSSTKKTQLQLEHLLLDLQMILNGINNYKNPKLTAMLTKKFYMPKKATELKHLQCLEEELKPLEEVLNLAQSKNFHYDPRDGVSNINVYVLELKGSETTFMCEYADETATIVEFLNRWITFSQSIISTLT
B21: interleukin-2 analog 25 (ligand)
chain: PTSSSTKKTQLQLEHLLFDLQMILNGINNYKNPKLTAMLTKKFYMPKKATELKHLQCLEEELKPLEEVLNLAQSKNFHLRPRDLISNINVIVLELKGSETTFMCEYADETATIVEFLNRWITFSQSIISTLT
B22: interleukin-2 analog 94 (ligand)
chain: PTSSSTKKTQLQLEHLLLDLQMILNGINNYKNPKLTRMLTFKFYMPKKATELKHLQCLEEELKPLEEVLNLAQSKNFHFEPRDVVSNINVFVFEFKGSETTFMCEYADETATIVEFLNRWITFSQSIISTLT
B23: interleukin-2 analog 73 (ligand)
chain: PTSSSTKKTQLQLEHLLLDLQMILNGINNYKNPKLTAMLTKKFYMPKKATELKHLQCLEEELKPLEEVLNLAQSKNFHFDPRDWVSNINVFVLELKGSETTFMCEYADETATIVEFLNRWITFSQSIISTLT
B24: interleukin-2 analog 24 (ligand)
chain: PTSSSTKKTQLQLEHLLVDLQMILNGINNYKNPKLTAMLTKKFYMPKKATELKHLQCLEEELKPLEEVLNLAQSKNFHLRPRDLISNINVIVLELKGSETTFMCEYADETATIVEFLNRWITFSQSIISTLT
B25: interleukin-2 analog 41 (ligand)
chain: PTSSSTKKTQLQLEHLLLDLQMILNGINNYKNPKLTRMLTFKFYMPKKATELKHLQCLEEELKPLEEVLNLAQSKNFHFDPRDVVSNINVFVLELKGSETTFMCEYADETATIVEFLNRWITFSQSIISTLT

Key:
[1] = target: T1, interleukin-2 beta receptor (SYMANSIS, …); assay: SPR (Biacore T200); receptor-Fc captured on anti-human Ig CM5 chip, analog flowed; relative to analog 1 = 100%
Procedure: (§1) In order to measure the binding affinities of the interleukin-2 analogs obtained in Example 4 for each of interleukin-2 alpha and beta receptors, surface plasmon resonance (SPR, BIACORE T200, GE Healthcare) was used. The binding affinities of the prepared analogs for the alpha and beta receptors were measured, and the binding affinity of each of the prepared analogs was compared with that of interleukin-2 analog 1 (aldesleukin).
(§2) First, an anti-human immunoglobulin antibody (Abcam, #ab97221) was immobilized to a CM5 chip (GE healthcare) to about 5,000 resonance unit (RU) through amine coupling, and then the interleukin-2 alpha receptor ([…], #4102H) or interleukin-2 beta receptor ([…], #4122H), to each of which a human immunoglobulin Fc region was linked, was bound to the immunoglobulin antibody using an antigen-antibody binding reaction and thus finally immobilized. Thereafter, the recombinant interleukin-2 analog prepared above was diluted with HBS-P+ buffer (Cytiva, BR100671) to various concentrations by serial dilution, and the diluted samples were allowed to flow through CM5 chips, to which the interleukin-2 receptors were finally immobilized, to measure the binding affinity of each interleukin-2 receptor. […] Upon the completion of the measurement, the binding affinity of the receptor was evaluated according to the 1:1 binding fitting model in the Biaevaluation program.

[2] = target: T2, interleukin-2 alpha receptor (SYMANSIS, …); assay: as above
Procedure: as §1, §2

Binder | Relative binding affinity (%) [1] | Relative binding affinity (%) [2]
B1 | 17100% | 
B2 | 35.3% | 
B3 | 9570% | 
B4 | 130% | 
B5 | 1530% | 
B6 | 322% | 9.4%
B7 | 644% | 
B8 | 3030% | 
B9 | 2570% | 
B10 | 10200% | 
B11 | 149% | 1.1%
B12 | 711% | 
B13 | 1260% | 0.2%
B14 | 18700% | 71.1%
B15 | 236% | 5%
B16 | 8150% | 
B17 | 1040% | 
B18 | 12800% | 98.4%
B19 | 7770% | 
B20 | 1040% | 
B21 | 21.7% | 
B22 | 35.5% | 
B23 | 1590% | 
B24 | 37.9% | 
B25 | 22800% | 121%
